# B1: JBD: JNK binding domain of JIP-1, residues 127-281, expressed (Flag-tagged) in cells (protein)
# chain: PKAESNQDPAPRSQGQGPGTGSGDTYRPKRPTTLNLFPQVPRSQDTLNNNSLGKKHSWQDRVSRSSSPLKTGEQTPPHEHICLSDELPPQGSPVPTQDRGTSTDSPCRRSAATQMAPPSGPPATAPGGRGHSHRDRIHYQADVRLEATEEIYLTP
# modifications: Flag tag
# What was measured:
# [1] = test system: c-Myc activation domain; assay: GAL4 luciferase reporter assay in CHO cells: c-Myc activation domain; assay type: cell-based, Chinese hamster; conditions: 48 hours post-transfection, FIG. 4A
# Description: (§1) In these experiments, CHO cells were cotransfected with constructs encoding the transcription factors and JIP-1 using previously described methods. Dérijard et al., supra; Sluss et al., supra; Gupta et al., supra. A luciferase reporter plasmid was used to monitor the expression of the transcription factors. Transfection efficiency was determined using a β-galactosidase expression vector. Constructs used in these experiments included GAL4 fusions with the c-myc, Sp1 and VP16 activation domains (described in Whitmarsh et al., Science, 269:403 (1995); Davis, Science, 269:403 (1995); Gille et al., Curr. Biol., 5:1191 (1995)). […]
# (§2) Transfected cells were activated by treatment with 10% (v/v) fetal calf serum, and luciferase and β-galactosidase activities were measured in cell lysates at 48 hours post-transfection. The data are presented as the ratio of luciferase activity (light units) to β-galactosidase activity (OD units) measured in the cell extracts (mean±SEM (n=3)), and are normalized to the luciferase activity detected in the absence of JBD (FIGS. 4A and 4B) or ATF2 (FIG. 4C).
# [2] = test system: E1a activation domain; assay: GAL4 luciferase reporter assay in CHO cells: E1a activation domain; assay type: cell-based, Chinese hamster; conditions: 48 hours post-transfection, FIG. 4A
# [3] = test system: Sp1 activation domain; assay: GAL4 luciferase reporter assay in CHO cells: Sp1 activation domain; assay type: cell-based, Chinese hamster; conditions: 48 hours post-transfection, FIG. 4A
# Description: as §1, §2
# [4] = test system: VP16 activation domain; assay: GAL4 luciferase reporter assay in CHO cells: VP16 activation domain; assay type: cell-based, Chinese hamster; conditions: 48 hours post-transfection, FIG. 4A
# Description: as §1, §2
# [5] = test system: ATF2 transcriptional activity; assay: GAL4 luciferase reporter assay in CHO cells: GAL4-ATF2; assay type: cell-based, Chinese hamster; conditions: GAL4-ATF2 reporter, CHO cells, FIG. 4C
# Description: In these experiments, CHO cells were cotransfected with constructs encoding the transcription factors and JIP-1 using previously described methods. Dérijard et al., supra; Sluss et al., supra; Gupta et al., supra. A luciferase reporter plasmid was used to monitor the expression of the transcription factors. Transfection efficiency was determined using a β-galactosidase expression vector. Constructs used in these experiments included GAL4 fusions with the c-myc, Sp1 and VP16 activation domains (described in Whitmarsh et al., Science, 269:403 (1995); Davis, Science, 269:403 (1995); Gille et al., Curr. Biol., 5:1191 (1995)). Other constructs used were GAL4-c-Jun, in which GAL4 is fused to c-Jun; GAL4-c-Jun (S63A/S73A), in which GAL4 is fused to a mutant c-Jun in which the serines at positions 63 and 73 have been changed to alanines; GAL4-ATF2, in which GAL4 is fused to wild type ATF2 (ATF2(Thr-69, 71)); GAL4-ATF2 (T69A/T71A) (ATF2(Ala-69/71)), in which GAL4 has been fused to a mutant ATF2 in which the […] at positions 69 and 71 have been changed to alanines; GAL4-Elk-1, in which GAL4 has been fused to Elk-1; and GAL4-Elk-1 (S383A), in which GAL4 has been fused to a mutant Elk-1 in which the serine at position 383 has been changed to an alanine. Gupta et al., EMBO J, 15:2760-2770 (1996); Raingeaud et al., Mol. Cell. Biol., 16:1247-1255 (1996); Whitmarsh et al. Science, 269:403-407 (1995).
# Insertional overlapping PCR, described in detail in Ho, supra, was used to construct expression vectors for the JNK binding domain (JBD; amino acid residues 127-281) of JIP-1 and for a mutant JIP-1 lacking the SH3 (amino acid residues 491-540) domain.
# as §2
# [6] = test system: differentiated PC12 cells; assay: NGF withdrawal-induced apoptosis of differentiated PC12 cells; assay type: cell-based; conditions: pCDNA3-Flag-JIP-1 (residues 127-281) transfection; 17 hours following NGF withdrawal; FIG. 5
# From the text: The effect of JIP-1 on this biological response was investigated to determine whether JIP-1 inhibits the biological effects of the JNK signaling pathway. NGF withdrawal-induced apoptosis of differentiated PC12 cells was examined following transfection with the expression vectors pCDNA3 (control) and pCDNA3-Flag-JIP-1 (containing residues 127-281 of JIP-1) using methods described previously. Xia et al., Science, 270:1326 (1995). The percentage of apoptotic cells in the total transfected cell population was blind-scored and quantitated. This assay scores adherent cells with an apoptotic morphology at 17 hours following NGF withdrawal. Cells that have completed apoptosis are nonadherent and are not scored. Thus, while the cumulative extent of apoptosis is large (100%), lower numbers of apoptotic cells are detected at a single time point.
# [7] = test system: JNK; assay: JNK activation by v-ABL or BCR-ABL in transfected 293 cells (immune complex kinase assay); assay type: cell-based; conditions: co-expression in 293 cells; GST-Jun substrate
# From the text: The BCR-ABL oncogene, which is associated with chronic myelogenous leukemia (CML), causes JNK activation in the absence of increased ERK activity. Raitano et al., Proc. Natl. Acad. Sci. USA, 92:11746 (1995). Oncogenic transformation by BCR-ABL may be mediated in part by the JNK signaling pathway. Since JIP-1 can inhibit JNK activity, the effect of JIP-1 expression on oncogenic transformation was examined. Plasmid vectors expressing v-ABL or BCR-ABL and Flag-tagged JBD (residues 127-281) of JIP-1 were used to transfect 293 cells. JNK activity was then measured in an immune complex kinase assay of lysates of the transfected 293 cells, using a polyclonal JNK antibody and GST-Jun as the substrate. […] JIP-1 can therefore inhibit BCR-ABL-mediated activation of JNK.
# [8] = test system: primary mouse marrow cells (pre-B cells); assay: Bone marrow transformation assay: pre-B cell transformation by BCR-ABL retrovirus; assay type: cell-based; conditions: bicistronic retrovirus, JBD in sense orientation (not anti-sense); day 10 post infection; FIG. 6
# Description: To examine the effect of JIP-1 on BCR-ABL-mediated cellular transformation, bone marrow transformation assays were performed using recombinant retroviruses packaged with 293T cells as described in Sawyers et al., J. Exp. Med., 181:307 (1995). Bicistronic retroviruses expressing BCR-ABL, alone, or in combination with the Flag-tagged JBD (residues 127-281) of JIP-1, were prepared by subcloning p185BCR-ABL into the ClaI site of pSRαTK, downstream of the internal TK promoter, to create pSRαMSVTKp185. The JBD was subcloned into the upstream EcoRI site in the sense and antisense orientations.
# The recombinant retroviruses were then used to infect primary mouse marrow cells, and the transformation of pre-B cells was monitored in culture. […] The data shown are derived from three independent experiments plated in triplicate. As expected, BCR-ABL caused pre-B cell transformation.
molecule,measurement,setting,value
B1,reporter gene expression mediated by c-Myc activation domain,[1],did not inhibit
same,reporter gene expression mediated by E1a activation domain,[2],did not inhibit
same,reporter gene expression mediated by Sp1 activation domain,[3],did not inhibit
same,reporter gene expression mediated by VP16 activation domain,[4],did not inhibit
same,JNK-regulated gene expression,[5],inhibition
same,apoptosis following NGF-withdrawal,[6],markedly reduced
same,constitutive JNK activation caused by v-ABL and BCR-ABL,[7],blocked
same,pre-B cell transformation by BCR-ABL,[8],marked inhibition
